Assay results reported in PMC6212794, “Crystal structure of the modification-dependent SRA-HNH endonuclease TagI”.
Values belong to the molecule of their own block, whether it stands above or below them.

Key:
[1] = molecular target: TagI, SRA-HNH modification-dependent restriction endonuclease from Thermocrispum agreste (Thermocrispum agreste); experiment: SEC-MALS; multi-angle light scattering of TagI alone
[2] = molecular target: TagI, SRA-HNH modification-dependent restriction endonuclease from Thermocrispum agreste (Thermocrispum agreste); experiment: SEC; analytical gel filtration of TagI alone; apparent molecular mass compared with the theoretical mass of the dimer
TagI [3] = molecular target: T1, TagI (Thermocrispum agreste, UniProt A0A3F2YM30 1-311); experiment: analytical gel filtration (SEC co-migration); 1, 2 or 4 duplexes per TagI dimer; sharp complex peak, 93 kDa, about 1 duplex per dimer; analytical gel filtration; buffer, salt, pH and temperature not given in the material; settings: protein: recombinant; chain copies: 2; blunt
T1 sequence: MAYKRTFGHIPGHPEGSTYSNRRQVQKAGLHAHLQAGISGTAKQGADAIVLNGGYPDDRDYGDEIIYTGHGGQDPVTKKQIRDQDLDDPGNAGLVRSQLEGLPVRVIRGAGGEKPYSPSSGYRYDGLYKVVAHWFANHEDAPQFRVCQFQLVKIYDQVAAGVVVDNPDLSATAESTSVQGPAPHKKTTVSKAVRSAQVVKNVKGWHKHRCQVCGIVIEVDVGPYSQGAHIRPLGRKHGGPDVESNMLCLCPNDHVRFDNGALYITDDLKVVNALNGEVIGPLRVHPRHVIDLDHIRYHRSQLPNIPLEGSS

TagI [4] = molecular target: T1, TagI; experiment: analytical gel filtration (SEC co-migration); 1, 2 or 4 duplexes per TagI dimer; migrated independently; analytical gel filtration; buffer, salt, pH and temperature not given in the material; settings: protein: recombinant; chain copies: 2; blunt

- stoichiometry N [1]: 2
- stoichiometry N [2]: 2
Molecule: TagI, SRA-HNH modification-dependent restriction endonuclease from Thermocrispum agreste (enzyme)

B1: 17mer fully methylated duplex (dsDNA)
DNA 1: CCTAGAGCAGCAATCCC
DNA 2: GGGATTGCTGCTCTAGG
modifications: 5mC at position 8 of strand 1 and position 8 of strand 2
- binding result (TagI [3]): binds

B2: 17mer unmodified duplex (dsDNA)
DNA 1: CCTAGAGCAGCAATCCC
DNA 2: GGGATTGCTGCTCTAGG
- binding result (TagI [4]): no binding
